Assay results: article PMC6778195 (2019)

Biological target: J1a DBLβ domain (wild type) (Plasmodium falciparum)
Experiment: SPR

B1: ICAM-1^D1D5-Fc (Fc fusion)
chain: QTSVSPSKVILPRGGSVLVTCSTSCDQPKLLGIETPLPKKELLLPGNNRKVYELSNVQEDSQPMCYSNCPDGQSTAKTFLTVYWTPERVELAPLPSWQPVGKNLTLRCQVEGGAPRANLTVVLLRGEKELKREPAVGEPAEVTTTVLVRRDHHGANFSCRTELDLRPQGLELFENTSAPYQLQTFVLPATPPQLVSPRVLEVDTQGTVVCSLDGLFPVSEAQVHLALGDQRLNPTVTYGNDSFSAKASVSVTAEDEGTQRLTCAVILGNQSQETLQTVTIYSFPAPNVILTKPEVSEGTEVTVKCEAHPRAKVTLNGVPAQPLGPRAQLLLKATPEDNGRSFSCSATLEVAGQLIHKNQTRELRVLYGPRLDERDCPGNWTWPENSQQTPMCQAWGNPLPELKCLKDGTFPLPIGESVTVTRDLEGTYLCRARSTQGEVTRKVTVNVLSPRYE
Kd: 262 nM
